Reference: patent publication US20160333110A1 (CHIOME BIOSCIENCE, published 2016)

B1: anti-hTROP-2 monoclonal antibody clone T6-16 (antibody, mouse IgG2a, V domains shown)
VH: EVQLQQSGPELVKPGASVKISCKASGYTFTDYNMHWVKQSHGKNLEWIGYIYPYNGGTGYNQRFKSRATMTVDKSSSTAYMELRSLTSDDSAVYYCAREDYGSSPSYAMDYWGQGTSVIVSS
VL: DVVMTQTPLSLPVSLGDQASISCRSSQSLVHGNGNTYLHWYLQKPGQSPKLLIYKVSNRFSGVPDRFSGSGSGTDFTLKISRVEAEDLGVYFCSQTTHVPTFGSGTKLEIK
notes: mouse IgG2a, hybridoma FERM BP-11346; also called T6-16 antibody
B2: anti-hTROP-2 monoclonal antibody clone K5-70 (antibody, mouse IgG2a, V domains shown)
VH: QVQLQQPGAELVRPGASVKLSCKASGYTFTIYWINWVKQRPGQGLEWIGNIYPSDSYTNYNQKFKDKATLTVDKSSSTAYMQLSSPTSEDSAVYYCTRTSMADYWGQGTTLTVSS
VL: DILLTQSPAILSVSPGERVSFSCRASQSIGTSIHWYQQRTNGSPRLLIKYASESISGIPSRFSGSGSGTDFTLSINSVESEDIADYYCQQSNSWPFTFGSGTKLEIK
notes: mouse IgG2a, hybridoma FERM BP-11251; also called K5-70 antibody; mouse K5-70 antibody

Assays:
[1] = biological target: T1, peptide No. 19 of Table 11 (SEQ ID NO: 227) (human); experiment: PEPSCAN/CLIPS peptide ELISA, antibody 1 µg/mL
T1 peptide: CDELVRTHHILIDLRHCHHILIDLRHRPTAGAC
Protocol: (§1) 5034 types of the synthesized peptides were covalently bound to PEPSCAN cards (455 peptides/card), and the binding of the synthesized peptides to antibodies was then analyzed by the ELISA method. […] After washing, the resultant was allowed to react with a 1000-fold diluted peroxidase-secondary antibody complex at 25° C. for 1 hour. After washing, a substrate solution (a solution containing 2,2′-azino-di-3-ethylbenzthiazoline sulfonate (ABTS) and 2 μL of 3% hydrogen peroxide solution) was added to the reaction solution, followed by a chromogenic reaction for 1 hour. The binding activity of the antibodies was quantified by photographing with a CCD camera and then performing an image analysis.

[2] = biological target: T2, peptide No. 8 of Table 11 (SEQ ID NO: 216) (human); experiment: PEPSCAN/CLIPS peptide ELISA, antibody 1 µg/mL
T2 peptide: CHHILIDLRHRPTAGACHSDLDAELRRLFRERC
Protocol: as §1

[3] = biological target: T3, peptide No. 15 of Table 11 (SEQ ID NO: 223) (human); experiment: PEPSCAN/CLIPS peptide ELISA, antibody 1 µg/mL
T3 peptide: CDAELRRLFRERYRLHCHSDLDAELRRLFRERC
Protocol: as §1

[4] = biological target: T4, peptide No. 10 of Table 11 (SEQ ID NO: 218) (human); experiment: PEPSCAN/CLIPS peptide ELISA, antibody 1 µg/mL
T4 peptide: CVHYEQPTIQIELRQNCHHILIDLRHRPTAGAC
Protocol: as §1

[5] = biological target: T5, peptide No. 23 of Table 11 (SEQ ID NO: 231) (human); experiment: PEPSCAN/CLIPS peptide ELISA, antibody 1 µg/mL
T5 peptide: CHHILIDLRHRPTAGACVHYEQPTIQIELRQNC
Protocol: as §1

[6] = biological target: T6, peptide No. 4 of Table 11 (SEQ ID NO: 212) (human); experiment: PEPSCAN/CLIPS peptide ELISA, antibody 1 µg/mL
T6 peptide: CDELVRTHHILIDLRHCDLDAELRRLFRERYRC
Protocol: as §1

[7] = biological target: T7, peptide No. 11 of Table 11 (SEQ ID NO: 219) (human); experiment: PEPSCAN/CLIPS peptide ELISA, antibody 1 µg/mL
T7 peptide: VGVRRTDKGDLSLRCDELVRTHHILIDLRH
Protocol: as §1

[8] = biological target: T8, peptide No. 6 of Table 11 (SEQ ID NO: 214) (human); experiment: PEPSCAN/CLIPS peptide ELISA, antibody 1 µg/mL
T8 peptide: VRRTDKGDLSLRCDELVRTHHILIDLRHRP
Protocol: as §1

[9] = biological target: T9, peptide No. 3 of Table 11 (SEQ ID NO: 211) (human); experiment: PEPSCAN/CLIPS peptide ELISA, antibody 1 µg/mL
T9 peptide: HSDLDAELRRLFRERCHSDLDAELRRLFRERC
Protocol: as §1

[10] = biological target: T10, peptide No. 7 of Table 11 (SEQ ID NO: 215) (human); experiment: PEPSCAN/CLIPS peptide ELISA, antibody 1 µg/mL
T10 peptide: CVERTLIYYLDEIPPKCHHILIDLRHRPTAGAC
Protocol: as §1

[11] = biological target: T11, recombinant hTACSTD2-Fc-His protein (Creative BioMart) (human, UniProt P09758 27-274, limits assumed); experiment: low-density antigen-coated ELISA, plate coated with 0.1 µg/mL hTACSTD2-Fc-His, purified antibodies; K5-70 (parental antibody); low-density ELISA, 0.1 µg/mL hTROP-2 coat
T11 construct: bought protein; also called hTROP-2 (low-density antigen-coated ELISA); not shown: Fc part of the bought fusion protein; not described; His tag
T11 sequence: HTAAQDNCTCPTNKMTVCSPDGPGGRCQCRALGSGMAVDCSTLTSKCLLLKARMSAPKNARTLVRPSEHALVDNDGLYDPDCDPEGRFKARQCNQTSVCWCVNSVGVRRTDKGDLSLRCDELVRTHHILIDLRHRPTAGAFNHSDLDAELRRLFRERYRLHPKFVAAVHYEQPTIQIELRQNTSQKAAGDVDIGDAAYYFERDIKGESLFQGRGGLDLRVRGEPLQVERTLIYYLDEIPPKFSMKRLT

Row | Binder | binding of 16-16 [1] | binding of 16-16 [2] | binding of 16-16 [3] | binding of 16-16 [4] | binding of 16-16 [5] | binding of 16-16 [6] | binding of 16-16 [7] | binding of 16-16 [8] | binding of 16-16 [9] | binding of 16-16 [10] | EC50 [11] [µg/mL]
1 | B1 | 534 | 620 | 566 | 602 | 524 | 713 | 601 | 670 | 714 | 626 | 
2 | B2 |  |  |  |  |  |  |  |  |  |  | 0.0114
